Results taken from patent publication US7893027B2, “Treatment of ocular wounds and ulcers” (The Board of Regents of the University of Oklahoma, priority 2002, dated 2011).

Key:
[1] = test system: human corneal epithelial cells (HCEC); test: Modified Boyden chamber chemotaxis / checkerboard assay; assay type: cell-based; details: for Number of cells migrated: 4 hr
Experimental: Human corneal epithelial cells were cultured in basic medium overnight, detached using trypsin-EDTA as described above and resuspended at a final concentration of 8×10^5 cells/ml. Chemotaxis assays were performed using the modified Boyden chamber assay described previously (13). Briefly, 200 (μl of cell suspension was added to the upper chamber and chemoattractants including recombinant CAP37 (10-2000 ng/ml) and the positive control recombinant human Platelet Derived Growth Factor-BB (PDGF-BB, 10 ng/ml, Collaborative Biomedical Products, Bedford Mass.) in 0.1% BSA (endotoxin-low-Sigma, St. Louis) in Geys' Buffer (GIBCO) were added to the lower chamber. The chambers were separated by an 8.0 μm pore membrane (13 mm polyvinylpyrrolidone-free, Whatman, Clifton, N.J.). Membranes were pre-coated with 50 μg/ml collagen type I rat tail (Collaborative Biomedical Products) in 0.02N acetic acid at room temperature for 1 hr and then air dried. Membranes were re-hydrated in basic cell culture medium immediately prior to commencement of each experiment. The negative control in these experiments was 0.1% BSA in Geys' buffer. The chambers were incubated in a humidified atmosphere (37° C., 5% CO2) for 4 hr, the filters were removed, stained with DIFF-QUICK (Dade Behring, Düdingen, Switzerland) and mounted with Permount (FISHER SCIENTIFIC, Pittsburgh, Pa.). The filters were viewed under oil immersion (×400 magnification, BH-2, Olympus, Lake Success, N.Y.) and the total numbers of cells migrated through to the underside of the filter were counted in five different fields on each slide. Triplicates were set up for each experimental point.
To assess whether CAP37 had chemokinetic properties, various concentrations of CAP37 (0, 10, 100 and 1000 ng/ml) were added to the upper chamber as well as to the lower chamber (0, 10, 100, 500, 1000 ng/ml) and a checkerboard assay performed according to the methodology of Zigmond and Hirsch (46).

α1 (CD49a; VLA-α1) = test: Flow cytometry of integrin expression on HCEC; assay type: cell-based, human
Experimental: (§1) Flow cytometry was used to assess the upregulation of PECAM-1 (CD31), and the integrin molecules β1 (CD29), β2 (CD18), β3 (CD61), β4 (CD104), α1 (CD49a), α2 (CD49b), α3 (CD49c), α4 (CD 49d), and αv (CD51). Human corneal epithelial cells were cultured as above and treated with CAP37 (0-2000 ng/ml) for 0-72 hr. A corresponding culture was left untreated at each time point. Following treatment with CAP37, cells were detached with 0.25% trypsin in 1 mM EDTA (pH 7.4, FISHER SCIENTIFIC, Pittsburgh, Pa.), washed twice in PBS and fixed with 0.125% paraformaldehyde (J.T. BAKER, Phillipsburg, N.J.) overnight at 4° C. The cells were washed in PBS and then incubated in 0.5% normal goat serum and 0.5% bovine serum albumin (BSA) in PBS for 30 min to block non-specific binding sites. Cells were incubated in the primary antibody (at concentrations described below) at 4° C. for 1 hr followed by the secondary antibody (FITC-goat anti-mouse IgG, PHARMINGEN, San Diego, Calif.) at 0.5 μg/10^6 cells and incubated at 4° C. for 30 min. The isotype control for these studies was FITC-labeled mouse isotype IgG1 (PHARMINGEN). The cells were analyzed by flow cytometry (FACS Calibur, BECTON DICKINSON, San Jose, Calif.). At least ten thousand cells were analyzed for each sample.
(§2) The primary antibodies and the concentrations used in the flow cytometry experiments are as follows: mouse anti-human PECAM-1 (CD31) monoclonal antibody clone HEC7 (0.5 μg/10^6 cells, ENDOGEN, Woburn, Mass.), mouse anti-human very late antigen 1α (VLA-1α, or CD49a) monoclonal antibody clone SR84 (0.5 μg/10^6 cells, PHARMINGEN), mouse anti-human VLA-α2 (CD49b) monoclonal antibody clone AK-7 (0.125 μg/10^6 cells, PHARMINGEN), mouse anti-human α3 (CD49c) monoclonal antibody clone C3II.1 (0.125 μg/10^6 cells, PHARMINGEN), mouse anti-human VLA-4 (α4) monoclonal antibody clone 2B4 (1 μg/10^6 cells, R & D systems, Minneapolis, Minn.), mouse anti human α5 (CD49e) monoclonal antibody clone VC5 (0.125 μg/10^6 cells, PHARMINGEN), mouse anti-human β1 (CD29) monoclonal antibody MAR4 (2 μg/10^6 cells, PHARMINGEN), mouse anti human β2 integrin (CD18) monoclonal antibody clone 6.7 (0.5 μg/10^6 cells, PHARMINGEN), mouse anti human αvβ3 (CD51/CD61) monoclonal antibody clone 23C6 (0.5 μg/10^6 cells, PHARMINGEN), and mouse anti human integrin β4 (CD104) monoclonal antibody clone 450-11A (1.0 μg/10^6 cells, PHARMINGEN). A purified mouse IgG1 κ monoclonal immunoglobulin isotype standard (clone MOPC-31C) was used as the isotype matched control in the flow cytometry experiments.

α2 (CD49b; VLA-α2) = test: Flow cytometry of integrin expression on HCEC; assay type: cell-based, human
Experimental: as §1, §2

α3 (CD49c) = test: Flow cytometry of integrin expression on HCEC; assay type: cell-based, human
Experimental: as §1, §2

α4 (CD49d) = test: Flow cytometry of integrin expression on HCEC; assay type: cell-based, human
Experimental: as §1, §2

αv β 3 (CD51/CD61) = test: Flow cytometry of integrin expression on HCEC; assay type: cell-based, human
Experimental: as §1, §2

β 1 (CD29) = test: Flow cytometry of integrin expression on HCEC; assay type: cell-based, human
Experimental: as §1, §2

β 2 (CD18) = test: Flow cytometry of integrin expression on HCEC; assay type: cell-based, human
Experimental: as §1, §2

β 4 (CD104) = test: Flow cytometry of integrin expression on HCEC; assay type: cell-based, human
Experimental: as §1, §2

B1: CAP37: Cationic Antimicrobial Protein of Mr 37 kDa; recombinant protein from human 293 cells, identical to native PMN-derived CAP37 (SEQ ID NO:1) (protein, listed as Homo sapiens)
chain: IVGGRKARPRQFPFLASIQNQGRHFCGGALIHARFVMTAASCFQSQNPGVSTVVLGAYDLRRRERQSRQTFSISSMSENGYDPQQNLNDLMLLQLDREANLTSSVTILPLPLQNATVEAGTRCQVAGWGSQRSGGRLSRFPRFVNVTVTPEDQCRPNNVCTGVLTRRGGICNGDGGTPLVCEGLAHGVASFSLGPCGRGPDFFTRVALFRDWIDGVLNNPGP
Q: With B1 as the molecule, how does the Chemotactic activity ([1]; 2000 ng/ml) read?
A: Its Chemotactic activity is “reduced but still measurably active”.

Q: What about the “Concentration range of maximal chemotactic activity” value ([1]; Boyden chamber) of the same molecule?
A: The value was 500 to 1000 ng/mL.

Q: What about the “Number of cells migrated” value ([1]; CAP37 above the filter 0 ng/ml, below the filter 10 ng/ml) of the same molecule?
A: The value was 28.56 ± 7.64.

Q: And the “Number of cells migrated” value ([1]; CAP37 above the filter 0 ng/ml, below the filter 100 ng/ml)?
A: Its value is 39.82 ± 6.20.

Q: What about the “Number of cells migrated” value ([1]; CAP37 above the filter 0 ng/ml, below the filter 500 ng/ml) of the same molecule?
A: Its value is 68.89 ± 7.70.

Q: And the “Number of cells migrated” value ([1]; CAP37 above the filter 0 ng/ml, below the filter 1000 ng/ml)?
A: The value was 67.34 ± 8.42.

Q: What about the “Number of cells migrated” value ([1]; CAP37 above the filter 10 ng/ml, below the filter 10 ng/ml) of the same molecule?
A: The value was 27.63 ± 3.03.

Q: What about the “Number of cells migrated” value ([1]; CAP37 above the filter 10 ng/ml, below the filter 100 ng/ml) of the same molecule?
A: The value was 39.80 ± 6.93.

Q: And the “Number of cells migrated” value ([1]; CAP37 above the filter 10 ng/ml, below the filter 500 ng/ml)?
A: The value was 52.40 ± 15.76.

Q: And the “Number of cells migrated” value ([1]; CAP37 above the filter 10 ng/ml, below the filter 1000 ng/ml)?
A: Its value is 62.73 ± 9.66.

Q: And the “Number of cells migrated” value ([1]; CAP37 above the filter 100 ng/ml, below the filter 100 ng/ml)?
A: Its value is 36.63 ± 6.48.

Q: What about the “Number of cells migrated” value ([1]; CAP37 above the filter 100 ng/ml, below the filter 1000 ng/ml) of the same molecule?
A: Its value is 48.57 ± 15.58.

Q: And the “Number of cells migrated” value ([1]; CAP37 above the filter 1000 ng/ml, below the filter 100 ng/ml)?
A: The value was 28.08 ± 2.76.

Q: What about the “Number of cells migrated” value ([1]; CAP37 above the filter 1000 ng/ml, below the filter 1000 ng/ml) of the same molecule?
A: Its value is 38.13 ± 6.07.

Q: What about the “Levels of migration relative to positive control” value ([1]; PDGF-BB 10 ng/ml as positive control) of the same molecule?
A: The value was “comparable to those obtained with the positive control, PDGF”.

Q: And the “Effect of CAP37 on integrin α1 (CD49a; VLA-α1)” value (α1 (CD49a; VLA-α1))?
A: The value was “Constitutive expression - no upregulation”.

Q: What about the “Effect of CAP37 on integrin α2 (CD49b; VLA-α2)” value (α2 (CD49b; VLA-α2)) of the same molecule?
A: The value was “Constitutive expression - no upregulation”.

Q: What about the CD49c protein levels (α3 (CD49c); 48 and 72 hr) of the same molecule?
A: Its CD49c protein levels is “returned back to constitutive levels”.

Q: And the “Level of CD49c protein expression” value (α3 (CD49c); 4 hr to 24 hr)?
A: The value was “sustained through 24 hr”.

Q: What about the “Effect of CAP37 on integrin α3 (CD49c)” value (α3 (CD49c); HCEC, flow cytometry) of the same molecule?
A: Its value is “High constitutive expression - significant”.

Q: And the “Time of initial upregulation of CD49c (α3)” value (α3 (CD49c); HCEC, flow cytometry)?
A: The value was 4 h.

Q: What about the “Effect of CAP37 on integrin α4 (CD49d)” value (α4 (CD49d)) of the same molecule?
A: Its value is “Low constitutive expression - no upregulation”.

Q: What about the “Effect of CAP37 on integrin αv β 3 (CD51/CD61)” value (αv β 3 (CD51/CD61)) of the same molecule?
A: The value was “Low constitutive expression - no upregulation”.

Q: What about the “Upregulation of CD29 (β1)” value (β 1 (CD29); 6 hr) of the same molecule?
A: Its value is “clearly significant”.

Q: And the “Upregulation of CD29 (β1)” value (β 1 (CD29); 72 hr)?
A: Its value is “still significantly elevated above background constitutive levels”.

Q: And the “Effect of CAP37 on integrin β 1 (CD29)” value (β 1 (CD29); HCEC, flow cytometry)?
A: The value was “Constitutive expression - significant upregulation”.

Q: What about the “Effect of CAP37 on integrin β 2 (CD18)” value (β 2 (CD18)) of the same molecule?
A: The value was “No constitutive expression - no upregulation”.

Q: And the “Effect of CAP37 on integrin β 4 (CD104)” value (β 4 (CD104))?
A: Its value is “Constitutive expression - no upregulation”.
